We go through one protein from article PMC5526998, “Structural analysis of the regulatory mechanism of MarR protein Rv2887 in M. tuberculosis” (Scientific Reports, 2017).

This data set deals with the molecule itself. As to the kind of experiment: crystal structure.

B1: MarR family protein Rv2887 (natural protein)
chain: MGLADDAPLGYLLYRVGAVLRPEVSAALSPLGLTLPEFVCLRMLSQSPGLSSAELARHASVTPQAMNTVLRKLEDAGAVARPASVSSGRSLPATLTARGRALAKRAEAVVRAADARVLARLTAPQQREFKRMLEKLGSD
notes: also called MarR-like protein Rv2887; apo-Rv2887
Consider B1, for which the binding result was “binds”.
